This test is described as follows: Library plate screen, activity on 12-pNCA. Format: biochemical. As to conditions: seven-crossover library, cell lysate. Here is the method: These library plates were replicated and grown in 96 deep-well plates in 900 μL of LB media with 100 μg/ml ampicillin overnight at 30° C. and 250 rpm. 150 μL of this was then transferred to 850 μL of induction media (TB-media with final concentrations of 100 μg/ml ampicillin, 25 μg/ml thiamine, 0.5 mM δ-aminolevulinic acid and 0.6 mM IPTG). These were grown for 20-24 hours at 25° C. and 190 rpm, harvested by centrifugation at 5000×g for 8 minutes and frozen at −20° C. for at least 24 hours. Cells were resuspended using a pipetting robot (Multimek 96, Beckman) and lysed in 400 μL of Epps or Tris buffer (100 mM, pH 8.2) containing 0.8 mg/ml lysozyme and 2 units/mL DNaseI for 1 hour at 37° C. Plates were then spun for 8 minutes at 5000×g and 4° C. to pellet cell debris. 80 μL of lysate was transferred into 4 separate 96 well plates for each library plate. […] On one plate, high -throughput carbon monoxide spectroscopy was done in order to assess relative amounts of P450 (Otey, C. R. High-throughput carbon monoxide binding assay for cytochromes P450. In Directed Enzyme Evolution: Screening and Selection Methods, F. H. Arnold and G. Georgiou, eds. (Totowa, N.J.: Humana Press) pp. 137-139 (2003)) with 0.1 M sodium hydrosulfite being used in place of 0.4 M. The other three plates were used to assay activity on different substrates. […]

B1: Chimera F3791: chimera of the CYP102A1/A2/A3 seven-crossover library (protein)
chain: KETSPIPQPKTFGPLGNLPLIDKDKPTLSLIKLAEEQGPIFQIHTPAGTTIVVSGHELVKEVCDESRFDKNLSQALKFVRDFAGDGLATSWTHEKNWKKAHNILLPSFSQQAMKGYHAMMVDIAVQLIQKWARLNPNEAVDVPGDMTRLTLDTIGLCGFNYRFNSYYRDSQHPFITSMLRALKEAMNQSKRLGLQDKMMVKTKLQFQKDIEVMNSLVDKIIADRKASGEQSDDLLTHMLNGKDPETGEPLDDENIRYQIITFLIAGHETTSGLLSFATYFLLKHPDKLKKAYEEVDRVLTDAAPTYKQVLELTYIRMILNESLRLWPTAPAFSLYAKEDTVLGGEYPISKGQPVTVLIPKLHRDQNAWGPDAEDFRPERFEDPSSIPHHAYKPFGNGQRACIGMQFALQEATMVLGLVLKHFELINHTGYELKIKEALTIKPDDFKITVKPRKTAAINVQRKEQA
modifications: Chimeric Cytochrome P450 heme group polypeptide sequence from CYP102A1 (Bacillus megaterium); CYP102A2 (Bacillus subtilis) and CYP102A3 (Bacillus subtilis)
notes: chimera of the CYP102A1/A2/A3 seven-crossover library
For B1, the “activity for 12-pNCA compared to parent P450s” value is on record as “superior activity”.

The values above are taken from patent publication US8603949B2, “Libraries of optimized cytochrome P450 enzymes and the optimized P450 enzymes” (California Institute of Technology, priority 2003, dated 2013).
